Columns and labels:
[1] = system: DGAT activity; assay: Substrate preference of recombinant TmDGAT1 expressed in yeast H1246MATα; assay type: biochemical, Tropaeolum majus
Description: FIG. 8. Expression of TmDGAT1 in yeast mutant H1246 MATα. DGAT assays were performed on cell lysates of yeast quadruple mutant (DGAT-, PDAT-, ASAT1^−, ASAT2^−) strain:H1246 MATα transformed with pYES2.1/V5-His-TOPO plasmid only (Control) and TmDGAT1/pYES2.1 in the presence of ^14C-labeled 16:0-, 18:0-, 18:1-, eicosenoyl-(20:1 Δ11) and 22:1 acyl-CoAs and sn-1,2-diolein (18:1 DAG) or sn-1,2-dierucin (22:1 DAG). The enzyme activity is scarcely detected in the yeast strain harboring the empty control vector, and has been subtracted from the enzyme activities detected from the H1246MATα strain expressing the TmDGAT1.
The TmDGAT1 ORF (SEQ. ID. NO: 2) in pYES2.1/V5-His-TOPO plasmid was transformed into a quadruple yeast mutant H1246MATα (Sandager et al, 2002) using the S.c. EasyComp™ transformation Kit (Invitrogen). Yeast cells transformed with pYES2.1/V5-His-TOPO plasmid only were used as a control. Transformants were selected by growth on synthetic complete medium lacking uracil (SC-ura), supplemented with 2% (w/v) glucose. The colonies were transferred into liquid SC-ura with 2% (w/v) glucose and grown at 28° C. overnight. The overnight cultures were diluted to an OD of 0.4 in induction medium (SC-ura+2% Galactose+1% Raffinose), and were induced for 24-36 hours at 28° C. Cells were collected and broken using glass beads. The crude protein concentration in the lysates was normalized using the Biorad assay based on the method of (Bradford, 1976) and assayed for DGAT activity. DGAT assays were conducted at pH 7.4, with shaking at 100 rev/min in a water bath at 30° C. for 60 min. […] The ^14C-labelled TAGs were isolated and counted as described above for insect cell expression.
H1246MATα yeast cells harboring an empty pYES2.1 vector plasmid were used as a control. […] In both cases, the lowest level of TAG was detected when using the saturated 16:0-acyl-CoA. […]

[2] = system: DGAT activity; assay: TmDGAT1 expressed in Sf9 insect cells, DGAT assay of membrane fractions; assay type: biochemical, Tropaeolum majus; conditions: Sf9 total membrane fraction (100,000×g pellet), 48 hours; sn-1,2-diolein + [1-14C]oleoyl-CoA
Description: FIG. 7. Expression of T. majus DGAT1 in baculovirus insect cells. TmDGAT1 activity was determined using membranes isolated from insect cells infected with wild type baculovirus (Control) and TmDGAT1 recombinant baculovirus in the presence of sn-1,2-diolein and [1-^14C]oleoyl-CoA.
The coding region of TmDGAT1 (SEQ. ID. NO: 2) was sub-cloned into pFastBAC for expression of the protein in an insect cell expression system (Bac-to-Bac baculovirus expression system, Invitrogen). Escherichia coli DH10Bac cells were transformed with the construct to generate recombinant bacmid DNA, and then the bacmid DNA was isolated and used to transfect Sf9 insect cells. The virus stock harvested from the transfected cells was used to re-infect fresh Sf9 insect cells. Insect cells (2.5×10^6 per 25 cm^2 dish) were infected with virus and were collected at 48 h by centrifugation and washed twice with PBS (Hobbs et al., 1999). […]
DGAT assays were conducted at pH 7.4, with shaking at 100 rev/min in a water bath at 30° C. for 60 min. […] The ^14C-labelled TAGs were isolated by TLC on silica gel G plates developed in hexane:diethyl ether:acetic acid (70:30:1 v/v/v/), the radiolabelled TAG bands visualized on a Bioscan AR-2000 radio-TLC scanner using Win-Scan 2D© software (Bioscan Inc., Washington D.C., USA) and the bands scraped and quantified as described by Taylor et al. (1991). […]

[3] = acceptor sn-1,2-diolein or sn-1,2-dierucin

B1: TmDGAT1: Tropaeolum majus acyl-CoA-dependent diacylglycerol acyltransferase 1, 518 amino acids (SEQ ID NO: 3), encoded by ORF SEQ ID NO: 2 (protein, listed as Tropaeolum majus)
chain: MAVAESSQNTTTMSGHGDSDLNNFRRRKPSSSVIEPSSSGFTSTNGVPATGHVAENRDQDRVGAMENATGSVNLIGNGGGVVIGNEEKQVGETDIRFTYRPSFPAHRRVRESPLSSDAIFKQSHAGLFNLCIVVLIAVNSRLIIENLMKYGWLIDTGFWFSSRSLGDWSIFMCCLTLPIFPLAAFIVEKLVQRNHISELVAVLLHVIVSTAAVLYPVIVILTCDSVYMSGVVLMLFGCIMWLKLVSYAHTSSDIRTLAKSGYKGDAHPNSTIVSCSYDVSLKSLAYFMVAPTLCYQPSYPRSSCIRKGWVVRQFVKLIVFIGLMGFIIEQYINPIVRNSKHPLKGDFLYAIERVLKLSVPNLYVWLCMFYSFFHLWLNILAELLRFGDREFYKDWWNAKTVAEYWKMWNMPVHRWMVRHLYFPCLRNGIPKEGAIIIAFLVSGAFHELCIAVPCHVFKLWAFIGIMFQVPLVLITNYLQEKFSNSMVGNMIFWFIFCILGQPMCVLLYYHDLINLKEK
DGAT activity using 20:1-CoA compared to 18:1-CoA [1, 3]: about 2 fold | DGAT activity using 22:1-CoA compared to 18:1-CoA [1, 3]: ~3 fold | activity with radiolabeled free fatty acids as acyl donors ([1]; data not shown): no activity | DGAT activity relative to membrane fraction from control cells infected with vector only [2]: about 10 fold

Source: US8124835B2, “Acyl-coa-dependent diacylglycerol acyltransferas 1 (DGAT1) gene from Tropaeolum majus, protein encoded thereby and uses thereof” (National Research Council of Canada, priority 2006, dated 2012)
